The source of these data is patent US20250387450A1 (AIKIUM, published 2025).

A value given as a limit tells only on which side of the number the result lay.

In assay [1] the target is T1, TNFRSF13B disordered region peptide, LPPELRRQRSGEVENNSDNSGRYQ (biotin label).
T1 construct: also called TNFRSF13B Peptide
T1 peptide: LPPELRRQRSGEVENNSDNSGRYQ
The experiment in a line: modified sandwich ELISA, grade by the table's key. As to the method:
(§1) Binder proteins were coated on the surface of a high binding capacity 96 well plate by incubating 100 μL of protein at 5 μg/mL in a coating solution (10 mM Tris pH 8.8, 50 mM NaCl), overnight at 4 C. The next morning, the coating solution was aspirated out and wells were washed once with 300 μL ELISA wash buffer (1×PBS, 0.05% Tween-20) and solution was aspirated out. The wells were blocked with 200 μL of a blocking buffer (1×PBS, 0.05% Tween-20, 3% BSA) at room temperature for 1 hour. After one hour, the blocking solution was aspirated out and 100 μL of biotinylated polypeptide in a binding buffer (1×PBS, 0.05% Tween-20, 0.5% BSA) at various concentrations was added to the appropriate well and incubated for 20 minutes. Peptide solution was aspirated out after 20 minutes and wells were washed 5 times with 300 μL of ELISA wash buffer. To detect the biotinylated peptide, 100 μL of streptavidin-HRP (50 ng/ml) was added to each well and incubated for 1 hour. The wells were subsequently washed 5 times with 300 μL of ELISA wash buffer. 100 μL of QuantaBlu Fluorogenic Peroxidase substrate solution was added to each well, incubated for 30 minutes and reaction stopped by adding 100 μL of stop solution. Fluorescent signal from each well was measured using a Biotek Cytation5 plate reader by exciting the fluorophore at […] and measuring emission at 420 nm. Fluorescent signals were plotted as a function of polypeptide concentration.
(An ELISA detects its analyte on a solid surface through an enzyme-linked reagent.)

The target in assay [2] is T2, KAAG1 disordered region peptide, PGAAAAHLPRWPPPQLAASRREA (biotin label).
T2 construct: also called KAAG1 Peptide
T2 peptide: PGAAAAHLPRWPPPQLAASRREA
The assay is described as follows: modified sandwich ELISA, grade by the table's key. As to the method:
as §1

Assay [3] addresses T3, CYSLTR2 N-terminal disordered region peptide, MERKFMSLQPSISVSEMEPNGTFSNNNSRNCTIENFKREFFP (biotin label).
T3 construct: also called CysLT2; CysLT2r
T3 peptide: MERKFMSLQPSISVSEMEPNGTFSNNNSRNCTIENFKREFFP
The assay is described as follows: modified sandwich ELISA, grade by the table's key. As to the method: as §1

The target of assay [4] is T4, Urotensin-2 receptor N-terminal peptide, MALTPESPSSFPGLAATGSSVPEPPGGPNATLNSSWASPTEPSSLEDLVATGTI (biotin label).
T4 construct: also called Urotensin IIR; GPCR2 (Urotensin II)
T4 peptide: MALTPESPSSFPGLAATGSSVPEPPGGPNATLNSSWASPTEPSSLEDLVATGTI
The assay is described as follows: modified sandwich ELISA, grade by the table's key. As for the experimental part: as §1

Assay [5] concerns the target T5, CD74 disordered region peptide (CLIP), PPKPVSKMRMATPLLMQALPMGALP (biotin label).
T5 construct: also called CD74 Peptide
T5 peptide: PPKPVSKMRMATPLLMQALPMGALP
The experiment in a line: modified sandwich ELISA, fluorescence grade by the table's key. As for the experimental part: as §1

B1: engineered scaffold protein S084 (designed binder)
chain: IKEEHVIQQSEYYTNPDQSGEFQFDFDGDEIFHVDMAKKETVWRLEEFGRFASFEAQGALANIAVDKANLEIMTKRSNYTGDTRPRFNWQLKFECHFFNGTERVRLLERCNYNQEESVRFDSDVGEYRAVTELGRPDAEYWNSQKDLLEQRRAAVDTYCRHNYGVGESFTVQRRGGSHHHHHHLE
As for B1, the binding result in assay [1] is reported as “no binding (tested: <5000 (fluorescence, key))”; in assay [2], “no binding (tested: <5000 (fluorescence, key))”; in assay [3] it was “no binding (tested: <5000 (fluorescence, key))”; in assay [4], “no binding (tested: <5000 (fluorescence, key))”. The fluorescent signal in assay [5] was > 400000 fluorescentsignal.
